The text below walks through data of IntAct's records for PubMed 26749241.

Sequences and labels used below:
B1: Succinate dehydrogenase [ubiquinone] iron-sulfur subunit, mitochondrial (Homo sapiens), P21912 (parent)
chain: MAAVVALSLRRRLPATTLGGACLQASRGAQTAAATAPRIKKFAIYRWDPDKAGDKPHMQTYEVDLNKCGPMVLDALIKIKNEVDSTLTFRRSCREGICGSCAMNINGGNTLACTRRIDTNLNKVSKIYPLPHMYVIKDLVPDLSNFYAQYKSIEPYLKKKDESQEGKQQYLQSIEEREKLDGLYECILCACCSTSCPSYWWNGDKYLGPAVLMQAYRWMIDSRDDFTEERLAKLQDPFSLYRCHTIMNCTRTCPKGLNPGKAIAEIKKMMATYKEKKASV
partner: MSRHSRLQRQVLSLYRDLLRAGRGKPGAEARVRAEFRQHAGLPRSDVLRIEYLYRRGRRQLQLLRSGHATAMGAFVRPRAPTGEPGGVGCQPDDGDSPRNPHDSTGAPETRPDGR

In the test the parent is B1. The conditions noted are these: with sdhf1_human SDHAF1, A6NFY7.
With MAAVVALSLRRRLPATTLGGACLQASRGAQTAAATAPRIKKFAIYRWDPDKAGDKPHMQTYEVDLNKCGPMVLDALIKIKNEVDSTLTFRRSCREGICGSCAMNINGGNTLACTRRIDTNLNKVSKIYPLPHMYVIKDLVPDLSNFYAQYKSIEPYLKKKDESQEGKQQYLQSIEEREKLDGAAACILCACCSTSCPSYWWNGDKYLGPAVLMQAYRWMIDSRDDFTEERLAKLQDPFSLYRCHTIMNCTRTCPKGLNPGKAIAEIKKMMATYKEKKASV [L183A;Y184A;E185A], the “effect of a mutation on the interaction” value was “disrupting interaction strength”.

On to MAAVVALSLRRRLPATTLGGACLQASRGAQTAAATAPRIKKFAIYRWDPDKAGDKPHMQTYEVDLNKCGPMVLDALIKIKNEVDSTLTFRRSCREGICGSCAMNINGGNTLACTRRIDTNLNKVSKIYPLPHMYVIKDLVPDLSNFYAQYKSIEPYLKKKDESQEGKQQYLQSIEEAEAAAGLYECILCACCSTSCPSYWWNGDKYLGPAVLMQAYRWMIDSRDDFTEERLAKLQDPFSLYRCHTIMNCTRTCPKGLNPGKAIAEIKKMMATYKEKKASV [R177A;K179A;L180A;D181A], for which the “effect of a mutation on the interaction” value is “increasing interaction strength”.

For MAAVVALSLRRRLPATTLGGACLQASRGAQTAAATAPRIKKFAIYRWDPDKAGDKPHMQTYEVDLNKCGPMVLDALIKIKNEVDSTLTFRRSCREGICGSCAMNINGGNTLACTRRIDTNLNKVSKIYPLPHMYVIKDLVPDLSNFYAQYKSIEPYLKKKDESQEGKQQYLQSIEEREKLDGLYECILCACCSTSCPAAAAAGDKYLGPAVLMQAYRWMIDSRDDFTEERLAKLQDPFSLYRCHTIMNCTRTCPKGLNPGKAIAEIKKMMATYKEKKASV [S198A;Y199A;W200A;W201A;N202A], the “effect of a mutation on the interaction” value is recorded as “disrupting interaction strength”.
